Test [1] has as its target T1, recombinant human RON SEMA and PSI domains (human, UniProt Q04912 25-571).
T1 construct: domain: SEMA+PSI; Commercial protein (R&D Systems); also called rhRON SEMA+PSI; hRON SEMA+PSI
Briefly: SPR, Ab captured on anti-human IgG Fc, 25 C.

Test [2] has as its target T1, recombinant human RON SEMA and PSI …. Briefly: SPR, Ab captured on anti-human IgG Fc, 37 C; 37 C, n=1.
The target is the same in test [3]. Briefly: SPR, Ab captured on anti-human IgG Fc, 37 C.
Test [4] addresses T2, recombinant human RON-ECD/mFc fusion protein (human, UniProt Q04912 25-957).
T2 construct: extracellular domain; also called rhRON ECD/mFc; rhRon ECD/mFc; not shown: THXmFC: Thrombin/His tag/Factor Xa-AJ mouse IgG-Fc
Briefly: SPR, Ab captured on anti-mouse IgG, 37 C, AVG. On the procedure: (§1) The binding affinities and kinetics of binding of antibodies 07F01, 29B06, 17F06, 18H09, and 12B11 to recombinant human RON-ECD/mFc fusion protein (rhRON ECD/mFc) and recombinant human RON SEMA and PSI domains (rhRON SEMA+PSI) (R&D Systems, Inc., Minneapolis, Minn.) were measured by surface plasmon resonance, using a Biacore T100 instrument (GE Healthcare, Piscataway, N.J.).
(§2) Rabbit anti-mouse IgGs (GE Healthcare) were immobilized on carboxymethylated dextran CM4 sensor chips (GE Healthcare) by amine coupling, according to a standard protocol. Analyses were performed at 25° C. and 37° C., using PBS containing 0.05% surfactant P20 as running buffer. The antibodies were captured in individual flow cells at a flow rate of 10 μl/min. Injection time was varied for each antibody to yield an Rmax between 30 and 60 RU. 250 μg/mL mouse Fc were injected at 30 μl/min for 120 seconds to block non-specific binding of antibodies to Fc portion of the protein when needed. Buffer, rhRon ECD/mFc or rhRON SEMA+PSI diluted in running buffer was injected sequentially over a reference surface (no antibody captured) and the active surface (antibody to be tested) for 300 seconds at 60 μl/minute. The dissociation phase was monitored for up to 3600 seconds. The surface was then regenerated with two 60-second injections of 10 mM Glycine-HCl, pH 1.7, at a flow rate of 60 μl/min. The rhRON ECD/mFc or rhRON SEMA+PSI concentration range tested was 0.625 nM to 20 nM.
(§3) Kinetic parameters were determined using the kinetic function of the BIAevaluation software (GE Healthcare) with double reference subtraction. Kinetic parameters for each antibody, kₐ (association rate constant), kd (dissociation rate constant) and KD (equilibrium dissociation constant) were determined.

The target in test [5] is T3, human wild-type RON (cell surface) (human, UniProt Q04912 25-1400).
T3 construct: whole, on cells; also called Human RON; wt RON
Briefly: FACS, 10 ug/ml antibody, PC3 cells, 4 C. As to the method: (§4) Binding to cell surface wild-type RON and delta 160 RON at 4° C. was determined for antibodies 07F01, 12B11, 17F06, 18H09, and 29B06, using FACS. Cells expressing wild-type RON (PC3), and cells expressing delta 160 RON (HT-29), were harvested using cell dissociation buffer (Invitrogen), washed twice with FACS buffer (0.5% BSA PBS) and treated with CytoQ Antibody diluent and FC receptor block (Innovex). Purified antibodies were diluted at a concentration of 10 μg/ml, in FACS buffer. Cells were incubated with 100 μl of antibody mix for one hour, washed with FACS buffer three times, and incubated for 45 minutes with goat anti-mouse PE conjugated antibody (Jackson Immunoresearch Laboratories). Cells were washed three times with FACS buffer, resuspended in 300 μl of FACS buffer and analyzed using a Beckman Coulter Cytomics FC 500 FACS instrument.

The target of test [6] is T3, human wild-type RON (cell surface). Briefly: cell-based or functional assay.
Test [7] deals with T2, recombinant human RON-ECD/mFc fusion …. Briefly: SPR, Ab captured on anti-mouse IgG, 25 C, AVG. As to the method: as §1, §2, §3
Test [8] shares this target. Briefly: SPR, Ab captured on anti-mouse IgG, 25 C, AVG; * Outside instrument limit of detection; 25 C, AVG of n=3. On the procedure: as §1
(§5) Rabbit anti-mouse IgGs (GE Healthcare) were immobilized on carboxymethylated dextran CM4 sensor chips (GE Healthcare) by amine coupling, according to a standard protocol. Analyses were performed at 25° C. and 37° C., using PBS containing 0.05% surfactant P20 as running buffer. The antibodies were captured in individual flow cells at a flow rate of 10 μl/min. Injection time was varied for each antibody to yield an Rmax between 30 and 60 RU. 250 μg/mL mouse Fc were injected at 30 μl/min for 120 seconds to block non-specific binding of antibodies to Fc portion of the protein when needed. […] The dissociation phase was monitored for up to 3600 seconds. […]
as §3

For test [9], the target named is T3, human wild-type RON (cell surface). Briefly: cell-based or functional assay. This is another data set of the same source.
Test [10] concerns the target T1, recombinant human RON SEMA and PSI …. Briefly: ECL competition, MSP binding to coated hRON SEMA+PSI; competitor MSP; average. On the procedure: (§6) The biochemical neutralization assay measures inhibition of MSP binding to hRON by antibodies in hybridoma supernatants, using electrochemiluminescence (ECL). MA2400 96-well high binding plates (Meso Scale Discovery) were coated with 25 μl of 0.42 μg/mL hRON SEMA+PSI (an N-terminal portion of the ECD of hRON; R&D Systems) in PBS for one hour at room temperature with agitation. The plates were washed four times with PBS+0.1% Tween-20 (PBST), and blocked with 150 μl of charcoal-stripped fetal bovine serum (FBS) (Gibco). The hybridoma supernatant were added and incubated for 45 minutes at room temperature. After incubation, 5 μl of MSP (3 μg/mL) in charcoal stripped FBS was added to each well, and incubated for 45 minutes. The plate was washed four times with PBST, and 25 μl of 1 μg/mL biotinylated anti-MSP antibody (R&D Systems) was added to the plates for one hour at room temperature with agitation. The plates were washed four times with PBST, and incubated with 25 μl of 1 μg/mL ST-streptavidin (Meso Scale Discovery) for one hour at room temperature with agitation. The plates were washed four times with PBST, and 150 μl read buffer (Meso Scale Discovery) was added to each well before the plates were analyzed on a Sector Imager 2400 (Meso Scale Discovery) instrument. Antibodies 07F01, 18H09 and 29B06 each blocked MSP binding to hRON SEMA+PSI in this neutralization assay.
(§7) Antibodies 07F01, 12B11, 17F06, 18H09, and 29B06 were tested for inhibition of MSP binding to hRON SEMA+PSI, as measured by electrochemiluminescence (ECL) assay as described in Example 3. The antibodies (concentration range: 0.006-10 μg/mL) were incubated for 45 minutes at room temperature.

Test [11] has the same target. Briefly: SPR, Ab captured on anti-mouse IgG, 37 C, AVG. On the procedure: as §1, §2
Test [12] has as its target T2, recombinant human RON-ECD/mFc fusion …. Briefly: SPR, Ab captured on anti-mouse IgG, 25 C, AVG; * Outside instrument limit of detection. On the procedure: as §1, §5, §3
Test [13] deals with T4, delta 160 RON variant (cell surface) (human, UniProt Q04912 25-1400).
T4 construct: whole, on cells; Splice variant; also called delta 160 variant
Briefly: FACS, 10 ug/ml antibody, HT-29 cells, 4 C. On the procedure:
as §4

Test [14] addresses T1, recombinant human RON SEMA and PSI …. Briefly: SPR, Ab captured on anti-mouse IgG, 25 C, AVG. On the procedure:
as §1, §2

For test [15], the target named is T2, recombinant human RON-ECD/mFc fusion …. Briefly: SPR, Ab captured on anti-mouse IgG, 37 C, n=1. On the procedure:
as §1, §2, §3

The target in test [16] is T1, recombinant human RON SEMA and PSI …. Briefly: ECL competition assay: antibody titrated on plate-coated hRON SEMA+PSI; blocked ligand MSP, detected with biotinylated anti-MSP antibody. As to the method:
as §6, §7

Test [17] shares this target. Briefly: ECL competition, MSP binding to coated hRON SEMA+PSI; competitor MSP; average n=3. On the procedure: as §6, §7

B1: RON6 (antibody, V domains shown)
VH: QVQLVQSGPEVKKSGSSVKVSCKASGGTFSSDAITWVRQAPGQGLEWMGGIIPILGMANYAQKFQGRVTITADKSTNTAYMELSSLRSEDTAVYFCARVADYYGLGTYYWYFDLWGRGTLVTVSS
VL: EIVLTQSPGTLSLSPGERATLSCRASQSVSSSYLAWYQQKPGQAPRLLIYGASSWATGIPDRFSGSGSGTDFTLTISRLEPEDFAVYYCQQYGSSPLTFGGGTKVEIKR
Take B1: in [1], the Kd stood at 1.1 nM, the koff was 0.0026 s⁻¹ and the kon was found to be 2.3e+06 M⁻¹ s⁻¹. Also, the kon in test [2] amounted to 1.9e+08 M⁻¹ s⁻¹. Further, in test [3], the Kd amounted to 1 nM and the koff was determined as 0.19 s⁻¹.

B2: 17F06 (antibody, mouse IgG2a, V domains shown)
VH: EVKLVESGGGLVKPGASLKLSCAASGFIFSSYGMSWVRQTSDKRLEWVASISSGGGTTYYLDTVKGRFTISRENAKDTLYLQMSGLKSEDTALYYCTRGQWLLKFAYWGQGTLVTVSA
VL: QLVLTQSSSASFSLGASAKLTCTLSSQHTTYTIEWYQQLPLKPPKYVMELKKDGSHSTGVGIPDRFSGSSSGADRYLTISNIQPEDEAIYICGVGETIEDQFVYVFGGGTKVTVLG
notes: Murine hybridoma monoclonal, IgG2a/lambda (IGLC2); also called antibody 17F06
With B2, the Kd is 0.21 nM in test [4], 0.13 nM in [11], less than 0.0588 nM in test [12] and 9 pM in test [14]. Moreover, the koff was 2.4e-05 s⁻¹ in [4], less than 1e-05 s⁻¹ in test [8], 2.1e-05 s⁻¹ in [11] and 1.4e-06 s⁻¹ in test [14]. The on-rate constant (kon) in test [4] was 140000 M⁻¹ s⁻¹; in test [7], 170000 M⁻¹ s⁻¹; in test [11] it was 260000 M⁻¹ s⁻¹; in [14], 190000 M⁻¹ s⁻¹. In [5], the “PC3 % cell surface binding” value amounted to 99.1%. Further, the “Percent Inhibition of MSP-induced HPAF-II cell migration, antibody 2 ug/ml” value in [6] turned out to be 70.7%. Further, the “Mean IC50 (nM), inhibition of MSP-dependent ERK phosphorylation, T47D cells” value in test [9] was 0.96 nM. In [10], the “Maximum Neutralization (%)” value is 7.9%. Moreover, the “HT-29 % cell surface binding” value in test [13] is 99%.

B3: 18H09 (antibody, mouse IgG1, V domains shown)
VH: EVQLQESGPSLVKPSQTLSLTCYVTGDSITSDYWNWIRKFPGNKLEYMGYISYSGSTYYNPSLKSRISITRDTSKNQFYLRLNSVTTEDTATYYCARTHILTIAYWGQGTLVTVSA
VL: QAVVTQESALTTSPGETVTLTCRSSAGAVTTSNFANWVQEKPDHLFTGLIGDTNIRAPGVPARFSGSLIGDKAALTITGAQTEDEAIYFCALWYSNHYWVFGGGTKLTVLG
notes: Murine hybridoma monoclonal, IgG1/lambda (IGLC1); also called antibody 18H09
Take B3: in [5], the “PC3 % cell surface binding” value is 99%. Moreover, in test [6], the “Percent Inhibition of MSP-induced HPAF-II cell migration, antibody 2 ug/ml” value was 107%. Moreover, the dissociation constant (Kd) in test [7] was 0.22 nM; in test [15] it was 0.4 nM; in [11], 0.22 nM; in [14], 8.6 pM. Further, the koff in test [7] is 5.7e-05 s⁻¹; in [15], 0.0007 s⁻¹; in [11], 0.00012 s⁻¹; in [14], 3.8e-06 s⁻¹. The kon turned out to be 330000 M⁻¹ s⁻¹ in [7], 1.8e+06 M⁻¹ s⁻¹ in test [15], 580000 M⁻¹ s⁻¹ in test [11] and 440000 M⁻¹ s⁻¹ in test [14]. For the same molecule, in test [9], the “Mean IC50 (nM), inhibition of MSP-dependent ERK phosphorylation, T47D cells” value was found to be 0.71 nM. Further, the “Maximum Neutralization (%)” value in test [10] was found to be 86.9%. The “IC50 (read off the curve)” value in [16] is approximately 0.7 nM. Besides, the IC50 in test [17] came to 0.91 nM. In test [13], the “HT-29 % cell surface binding” value stood at 98.3%.

Source of the values: patent US20120027773A1 (AVEO PHARMACEUTICALS, published 2012).
